Experimental data from patent US11072643B2, “Fusion protein” (ADVANCECOR GMBH, priority 2017, dated 2021).
“Also recorded” adds a separate entry of the source.

Legend:
[1] = test system: Citrated blood of healthy donors; experiment: In vitro closure time with Innovance PFA-200; format: cell-based; details: human blood ex vivo; for PFA-200 closure time, COL/ADP cartridges / PFA-200 closure time, COL/EPI cartridges: GPVI-CD39 21.7 to 217 nmol/L, versus PBS buffer control
From the text: (§1) Informed consent was obtained as approved by the local Ethics Committee. An overall number of 58 healthy volunteers was included into the study: blood samples from 39 subjects were taken for in vitro experiments using vascular agonists, and blood samples from 19 subjects for experiments involving human plaque material.
Citrated blood of healthy donors was mixed with antagonist in concentrations indicated in the figures, and added to Dade® PFA COL/EPI, Dade® PFA COL/ADP, or Innovance® PFA P2Y test cartridges (Siemens Healthcare, Erlangen, Germany). Blood was aspirated under high shear conditions (>5000/s) through a capillary onto a membrane with a small aperture coated with substances which activate platelets and lead to closure of this aperture. The time until closure of this aperture is monitored and expressed as in vitro closure time with a maximum closure time of 300 s.

C57BL/6J wild type mice = experiment: In vivo thrombus formation after FeCl3 injury in carotid arteries; set-up: species or system mouse
Description: For examination of arterial thrombus formation in vivo, 6-8 weeks old C57BL/6J wild type mice were anesthetized by injection of midazolame (5 mg/kg body weight), medetomidine (0.5 mg/kg body weight) and fentanyl (0.05 mg/kg body weight). In the ferric chloride model, an overall number of 21 mice was studied.
The common carotid artery was dissected free and the mice were injected intravenously 30 minutes before carotid injury with GPVI-CD39 (3 mg/kg body weight) or its control and with GP1bα-488 (Emfret Analytics, Eibelstadt, Germany) for platelet visualization. The carotid was exteriorized and injured by topical application of a filter paper saturated with 15% ferric chloride for 1 minute. Thrombus formation in arteries was monitored for 20 minutes or until complete occlusion (stop of blood flow for >1 min). Digital films and images were recorded with a Nikon eclipse intravital microscope and analysed offline.

[2] = ADPase activity in plasma samples from the pharmacokinetic study; format: in vivo, mouse; details: mice, IV 4 mg/kg GPVI-CD39 or 2 mg/kg solCD39, up to 48 h
Description: (§2) Various concentrations of GPVI-CD39 or solCD39 protein or plasma samples from the pharmacokinetic study diluted 1:500-1:2000 in assay buffer were incubated in 25 mM Tris-HCl, 5 mM CaCl2, pH 7.5 with 200 μM ADP in a total volume of 100 μl for 30 min or 5 min at 37° C. Enzymatically released Pi was detected using the Malachite Green Phosphate Detection Kit (R&D Systems, Minneapolis, Minn.) according to the supplier's manual. A serial dilution of Pi standard was analyzed in parallel which facilitates quantification of released Pi. Absorbance was measured at a wave length of 630 nm using a Tecan Infinite 200 ELISA reader. Enzymatic activity of purified protein was calculated taking incubation time and protein amount into account and expressed as Units per mg of protein.
(§3) ale and female wild type C57BL/6J mice of the age of 12-22 weeks were used in this small scale study. An overall number of 9 mice were investigated. GPVI-CD39 or solCD39 were applied in a volume of 5 ml/kg into the right tail vein. At time points indicated in the figure blood sampling was performed by incision of the left tail vein using 25 μl heparinized capillaries. Blood samples were recovered by centrifugation at 2400×g for 10 min. The upper plasma phase was transferred to fresh tubes and stored frozen at −20° C.

human platelets = experiment: Platelet aggregation in human blood under static conditions (Multiplate impedance aggregometry); format: cell-based; details: for inhibition of ADP-induced platelet aggregation: 6.5 μM ADP, equimolar concentrations; for inhibition of ADP-induced platelet aggregation / inhibition of collagen-induced platelet aggregation: human blood; for inhibition of platelet aggregation triggered by human plaque material: same concentrations
Description: as §1
The effect of GPVI-CD39 and control proteins on platelet aggregation was analyzed using the Multiplate® device (25). 1:1 diluted hirudin-anticoagulated blood was pre-incubated with antagonist for 3 min in the test cell without stirring to avoid platelet pre-activation (26). Agonist was added and samples were incubated for 6 min at 37° C. with stirring. The following agonists were used: 6.5 μM ADP, 12 μg/ml collagen isolated from rabbit aorta, or 103 μg/ml collagen type I secreted by human fibroblasts (VitroCol®, Advanced BioMatrix, San Diego, Calif.). Platelet aggregation was measured in arbitrary units over the time period (arbitrary units (AU)*min) (cumulative aggregation values).

[3] = Pharmacokinetic analysis: protein concentration in plasma by Fc-specific sandwich ELISA; format: in vivo, mouse; details: mice, 4 mg/kg IV
Description: as §3
The concentration of GPVI-CD39 or Fc control protein in plasma samples was determined by Fc-specific sandwich ELISA. Wells of a MaxiSorp 96-well plate (Thermo Fisher Scientific, Waltham, Mass.) were coated with 0.1 μg/well goat-anti-human Fcγ antibody. Wells were washed three times with phosphate-buffered saline and tween-20 (PBST) between incubations. After blocking with 3% skimmed milk in PBST wells were incubated for 1 h with 50 μl of plasma from GPVI-CD39 treated (1:200) or Fc (1:500) treated mice diluted in PBST. Wells were incubated for 1 h with 100 μl of 80 ng/ml goat-anti-human IgG (H+L)-POD detection antibody. POD activity was visualized using 100 μl of Ultra TMB-ELISA substrate (Thermo Fisher Scientific, Waltham, Mass.) and signal intensities were read with a Tecan Infinite F200 ELISA reader.

C57BL/6J mice = experiment: In vivo tail bleeding time in mice; set-up: species or system mouse; details: 15 min after IV 13 nmol/kg (4 mg/kg GPVI-CD39, 2 mg/kg GPVI-Fc), versus vehicle or buffer
Description: Test or control substances were applied into the tail vein of C57BL/6J mice. Animals were anesthetized by intraperitoneal injection of 0.5 mg/kg medetomidine, 5 mg/kg midazolame, and 0.05 mg/kg fentanyl. 10 min after protein delivery a blood sample of 20 μl was drawn for analysis of recombinant protein content and ADPase activity using a heparinized capillary. 15 min after protein application the distal 2 mm of the tail were cut off, the tail was immediately immersed into pre-warmed PBS (37° C.) buffer and time-monitored until bleeding stopped for at least 30 s. […] Animals were sacrificed and a final blood sample stored for analysis.

[4] = ADPase activity of purified protein (Malachite Green phosphate detection); format: biochemical; details: purified protein at various concentrations, 200 μM ADP, 37° C., pH 7.5
Description: as §2

platelets = experiment: Plaque-induced platelet aggregation under flow; format: cell-based; details: 150 nM GPVI-CD39
[5] = 103 μg/ml collagen secreted by human fibroblasts (VitroCol)
[6] = human plaque material 333 μg/ml

CC(=O)Oc1ccccc1C(=O)O [ASA, acetyl salicylic acid, reference compound]
PFA-200 closure time, COL/ADP cartridges [1]: No significant differences between groups
PFA-200 closure time, COL/EPI cartridges [1]: inhibited the closure of the aperture completely; also recorded: significantly (p=0.04) prolonged

CCCSc1nc(N[C@@H]2C[C@H]2c2ccc(F)c(F)c2)c2nnn([C@@H]3C[C@H](OCCO)[C@@H](O)[C@H]3O)c2n1 [ticagrelor, reference compound]
PFA-200 closure time, P2Y cartridges ([1]; 1.9 μM): prolongations
PFA-200 closure time, COL/ADP cartridges [1]: No significant differences between groups

B1: GPVI-CD39: fusion protein of extracellular domain of platelet glycoprotein VI, Fc of human IgG2 and extracellular domain of human CD39, 15 amino acid linker (SEQ ID NO: 1) (protein, listed as Homo sapiens)
chain: QSGPLPKPSLQALPSSLVPLEKPVTLRCQGPPGVDLYRLEKLSSSRYQDQAVLFIPAMKRSLAGRYRCSYQNGSLWSLPSDQLELVATGVFAKPSLSAQPGPAVSSGGDVTLQCQTRYGFDQFALYKEGDPAPYKNPERWYRASFPIITVTAAHSGTYRCYSFSSRDPYLWSAPSDPLELVVTGTSVTPSRLPTEPPSSVAEFSEATAELTVSFTNKVFTTETSRSITTSPKESDSPAGPARQYYTKGNGGRVECPPCPAPPVAGPSVFLFPPKPKDTLMISRTPEVTCVVVDVSHEDPEVQFNWYVDGVEVHNAKTKPREEQFNSTFRVVSVLTVVHQDWLNGKEYKCKVSNKGLPAPIEKTISKTKGQPREPQVYTLPPSREEMTKNQVSLTCLVKGFYPSDIAVEWESNGQPENNYKTTPPMLDSDGSFFLYSKLTVDKSRWQQGNVFSCSVMHEALHNHYTQKSLSLSPGKGGGGSGGGGSGGGGSTQNKALPENVKYGIVLDAGSSHTSLYIYKWPAEKENDTGVVHQVEECRVKGPGISKFVQKVNEIGIYLTDCMERAREVIPRSQHQETPVYLGATAGMRLLRMESEELADRVLDVVERSLSNYPFDFQGARIITGQEEGAYGWITINYLLGKFSQKTRWFSIVPYETNNQETFGALDLGGASTQVTFVPQNQTIESPDNALQFRLYGKDYNVYTHSFLCYGKDQALWQKLAKDIQVASNEILRDPCFHPGYKKVVNVSDLYKTPCTKRFEMTLPFQQFEIQGIGNYQQCHQSILELFNTSYCPYSQCAFNGIFLPPLQGDFGAFSAFYFVMKFLNLTSEKVSQEKVTEMMKKFCAQPWEEIKTSYAGVKEKYLSEYCFSGTYILSLLLQGYHFTADSWEHIHFIGKIQGSDAGWTLGYMLNLTNMIPAEQPLSTPLSHST
time to vessel occlusion (C57BL/6J wild type mice; 15% ferric chloride carotid injury, 3 mg/kg (10 nmol/kg) IV): 1083 s
effect on ferric chloride-induced thrombus formation / occlusion time (C57BL/6J wild type mice; 15% ferric chloride, 10 nmol/kg IV (3 mg/kg GPVI-CD39, 1.5 mg/kg GPVI-Fc), versus vehicle): fully effective in inhibiting arterial thrombosis; also recorded: strongly delayed ferric chloride-induced thrombus formation
ADPase activity in plasma over time [2]: diminished rapidly during the first 60 min but was still detectable at very low levels after 2 d
PFA-200 closure time, P2Y cartridges ([1]; 47 nmol/L): statistically significant increase in closure time
PFA-200 closure time, P2Y cartridges ([1]; 217 nmol/L): statistically significant increase in closure time
PFA-200 closure time, COL/ADP cartridges [1]: no significant increase of closure times; also recorded: No significant differences between groups
PFA-200 closure time, COL/EPI cartridges [1]: no significant increase of closure times
inhibition of ADP-induced platelet aggregation (human platelets): Effective inhibition; also recorded: markedly reduces ADP-induced platelet aggregation
inhibition of collagen-induced platelet aggregation (human platelets; 12 μg/ml collagen isolated from rabbit aorta): highly significant, dose-dependent inhibition; also recorded: reduces platelet aggregation more strongly than GPVI-Fc alone
inhibition of collagen-induced platelet aggregation (human platelets; [5]): inhibited platelet aggregation significantly; also recorded: reduces platelet aggregation more strongly than GPVI-Fc alone
IC50 (human platelets; human plaque material 333 μg/ml, approximate, read-out: IC50 of inhibition of platelet aggregation triggered by human plaque material): ~30 nM
inhibition of platelet aggregation triggered by human plaque material (human platelets; [6]): dose-dependent inhibition
plasma concentration time course [3]: decreased rapidly in the course of two hours
mean plasma concentration ([3]; 5 min after application): 95 µg/mL
plasma concentration ([3]; after 48 h): 6 µg/mL
tail bleeding time (C57BL/6J mice): no differences; also recorded: no effect on systemic bleeding times
mean ADPase activity (specific activity) [4]: 11.2±4.0 U/mg
inhibition of plaque-induced platelet aggregation (platelets): 81%

B2: GPVI-Fc: dimeric soluble glycoprotein VI-Fc fusion protein (Revacept), Fc derived from human IgG1, in clinical investigation (protein)
chain: QSGPLPKPSLQALPSSLVPLEKPVTLRCQGPPGVDLYRLEKLSSSRYQDQAVLFIPAMKRSLAGRYRCSYQNGSLWSLPSDQLELVATGVFAKPSLSAQPGPAVSSGGDVTLQCQTRYGFDQFALYKEGDPAPYKNPERWYRASFPIITVTAAHSGTYRCYSFSSRDPYLWSAPSDPLELVVTGTSVTPSRLPTEPPSPVAEFSEATAELTVSFTNEVFTTETSRSITASPKESDSPAGPARQYYTK
modifications: left off: a dimerising Fc or GST
notes: dimeric soluble glycoprotein VI-Fc fusion protein (Revacept), Fc derived from human IgG1, in clinical investigation
PFA-200 closure time, COL/ADP cartridges [1]: No significant differences between groups
inhibition of ADP-induced platelet aggregation (human platelets): no inhibitory effect
inhibition of collagen-induced platelet aggregation (human platelets; [5]): minor inhibition
inhibition of platelet aggregation triggered by human plaque material (human platelets; [6]): markedly and significantly less effective than GPVI-CD39
tail bleeding time (C57BL/6J mice): no differences
